Measurements from US20180282425A1.
Like-named read-outs stand apart in the source and are kept apart here. Values belong to the substance of their own block, whether it stands above or below them.

Legend:
[1] = biological target: C5a receptor C5aR (CD88) on human blood neutrophils (human) (UniProt P21730); test: cell-based or functional assay
[2] = biological target: C5a receptor C5aR (CD88) on human blood neutrophils (human) (UniProt P21730); test: cell-based or functional assay; remark: listed apart in the source

Sequence of C5a receptor C5aR (CD88) on human blood neutrophils (human) (P21730 whole entry): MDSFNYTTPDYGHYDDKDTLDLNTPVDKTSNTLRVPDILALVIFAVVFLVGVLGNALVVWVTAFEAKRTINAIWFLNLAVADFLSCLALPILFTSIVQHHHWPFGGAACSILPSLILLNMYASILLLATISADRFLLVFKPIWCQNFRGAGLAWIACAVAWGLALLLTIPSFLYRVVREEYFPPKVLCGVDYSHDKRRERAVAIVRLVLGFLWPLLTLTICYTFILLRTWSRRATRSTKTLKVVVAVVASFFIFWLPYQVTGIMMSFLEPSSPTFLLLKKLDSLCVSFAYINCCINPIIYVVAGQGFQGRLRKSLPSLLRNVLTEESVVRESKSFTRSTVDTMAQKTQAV

- CD11b (mean MFI) on blood neutrophils; huPP|rhC5a (20 nM), no blocker [1]: 8330 MFI
- CD11b (mean MFI) on blood neutrophils; huPP|rhC5a (20 nM), no blocker [2]: 6330 MFI
Substance: recombinant human C5a (from UniProt P01031 678-751) (ligand)

- Blocking activity (%) on CD11b upregulation; Pat. 088|PMX 53 (20 µM) [1]: 104%
- Blocking activity (%) on CD11b upregulation; Pat. 092|PMX 53 (20 µM) [1]: 109%
- Blocking activity (%) on CD11b upregulation; huPP|rhC5a|PMX 53 (20 µM) [1]: 108%
- CD11b (mean MFI); Pat. 088|PMX 53 (20 µM) [1]: 2030 MFI
- CD11b (mean MFI); Pat. 092|PMX 53 (20 µM) [1]: 1910 MFI
- CD11b (mean MFI); huPP|rhC5a|PMX 53 (20 µM) [1]: 1850 MFI
- Blocking activity (%) on CD11b upregulation; Pat. 088|PMX 53 (50 nM) [2]: 55.5%
- Blocking activity (%) on CD11b upregulation; Pat. 092|PMX 53 (50 nM) [2]: 56.7%
- Blocking activity (%) on CD11b upregulation; huPP|rhC5a|PMX 53 (50 nM) [2]: 50.3%
- CD11b (mean MFI); Pat. 088|PMX 53 (50 nM) [2]: 4730 MFI
- CD11b (mean MFI); Pat. 092|PMX 53 (50 nM) [2]: 4660 MFI
- CD11b (mean MFI); huPP|rhC5a|PMX 53 (50 nM) [2]: 4240 MFI
Substance: PMX-53 (peptide)

- Blocking activity (%) on CD11b upregulation; Pat. 088|Clone S5/1 (50 nM) [2]: 72.7%
- Blocking activity (%) on CD11b upregulation; Pat. 092|Clone S5/1 (50 nM) [2]: 75.9%
- Blocking activity (%) on CD11b upregulation; huPP|rhC5a|Clone S5/1 (50 nM) [2]: 73%
- CD11b (mean MFI); Pat. 088|Clone S5/1 (50 nM) [2]: 3740 MFI
- CD11b (mean MFI); Pat. 092|Clone S5/1 (50 nM) [2]: 3560 MFI
- CD11b (mean MFI); huPP|rhC5a|Clone S5/1 (50 nM) [2]: 3290 MFI
Substance: anti-C5aR (CD88) antibody Clone S5/1

- Blocking activity (%) on CD11b upregulation; Pat. 088|Clone 7H110 (50 nM) [2]: 75.7%
- Blocking activity (%) on CD11b upregulation; Pat. 092|Clone 7H110 (50 nM) [2]: 78.7%
- Blocking activity (%) on CD11b upregulation; huPP|rhC5a|Clone 7H110 (50 nM) [2]: 70.7%
- CD11b (mean MFI); Pat. 088|Clone 7H110 (50 nM) [2]: 3560 MFI
- CD11b (mean MFI); Pat. 092|Clone 7H110 (50 nM) [2]: 3390 MFI
- CD11b (mean MFI); huPP|rhC5a|Clone 7H110 (50 nM) [2]: 3380 MFI
Substance: anti-C5aR (CD88) antibody Clone 7H110
